{
  "source": "paper PMC2806925",
  "about": "“Crystal Structure of the S. solfataricus Archaeal Exosome Reveals Conformational Flexibility in the RNA-Binding Ring” (PLoS ONE, 2010)",
  "proteins": {"B1": {"name": "Sulfolobus solfataricus exosome subunit Rrp4 as in the crystallised Rrp4-exosome isoform (natural protein)", "chain": "MNMSQSQKIVLQPRSIVVPGELLAEGEFQIPWSPYILKINSKYYSTVVGLFDVKDTQFEVIPLEGSFYYPKINDIVIGLVEDVEIYGWVVDIKAPYKAYLPASNLLGRSINVGEDLRRYLDVGDYVIARIENFDRSIDPVLSVKGKDLGRVSNGIVIDIMPVKVPRVIGKNKSMYETLTSKSGCSIFVANNGRIWATCPSRFSEEILIEAIRKIENESHIKGLTDRIKQFIEEKLGERNASSGETKTNS", "notes": "domains as printed: N-ter aa 1-50, S1 aa 56-126, KH aa 135-250; The purification of the Rrp4-exosome isoform is not described on its own; In the four-subunit preparation the His6-tag was removed with TEV protease, so the tag was probably cleaved here too; also called Chains C, F and I"}},
  "molecular_target": "the molecule itself",
  "assay": "crystal structure; Rrp4-exosome isoform (Rrp4, Rrp41, Rrp42 co-expressed and co-purified); 2.9 Å, space group C2; 30% PEG4000, 100 mM Tris-HCl pH 8.6, 200 mM Mg(Ac)2; refined without three-fold NCS",
  "data": [
    {"protein": "B1", "values": [
      {"measurement": "stoichiometry N", "value": 3}
    ]}
  ]
}
